Laboratory results reported in US20020111475A1.

Molecular target: flt3 on murine WWF7 cells
Assay: cell-based or functional assay

| Substance | Sp.Ac. MUT / Sp.Ac. WT (WWF7 cell proliferation units/ml per flt3-L ng/ml by ELISA, yeast supernatant) (ratio to wild type) | specific activity of WT protein (WWF7 cell proliferation, yeast supernatant), averaged over 11 independent assays [units/ng] |
| --- | --- | --- |
| flt3-L mutant I11Y (from UniProt P49771 24-179) (ligand) | 0 |  |
| flt3-L mutant H8Y (from UniProt P49771 24-179) (ligand) | 1.71 |  |
| flt3-L mutant V34L (from UniProt P49771 24-235) (ligand) | 0.58 |  |
| flt3-L mutant K84T (from UniProt P49771 24-235) (ligand) | 1.63 |  |
| flt3-L mutant Q122R (from UniProt P49771 24-179) (ligand) | 2.16 |  |
| flt3-L mutant F81S (from UniProt P49771 24-179) (ligand) | 0 |  |

Second part, the substance after the results:

| Sp.Ac. MUT / Sp.Ac. WT (WWF7 cell proliferation units/ml per flt3-L ng/ml by ELISA, yeast supernatant) (ratio to wild type) | specific activity of WT protein (WWF7 cell proliferation, yeast supernatant), averaged over 11 independent assays [units/ng] | Substance |
| --- | --- | --- |
| 0.07 |  | flt3-L mutant L27P (from UniProt P49771 24-179) (ligand) |
| 0.02 |  | flt3-L mutant K116E (from UniProt P49771 24-179) (ligand) |
| 0 |  | flt3-L mutant H8R (from UniProt P49771 24-179) (ligand) |
| 2.88 |  | flt3-L mutant K84E (from UniProt P49771 24-179) (ligand) |
| 0.69 |  | flt3-L mutant L26F (from UniProt P49771 24-235) (ligand) |
| 1 | 0.95 | wild type flt3-L (yeast-derived recombinant human flt3 Ligand) (from UniProt P49771 24-179) |
| 2.19 |  | flt3-L mutant W118R (from UniProt P49771 24-179) (ligand) |
